Source: paper PMC8079451, “Phosphopeptide interactions of the Nbs1 N-terminal FHA-BRCT1/2 domains” (Scientific Reports, 2021)
Square brackets hold non-standard residues; d marks the D form. Primed or numbered codes have the meaning given here. Ends that are not written are not given here. FITC′ = fluorescein isothiocyanate label; pT = C[C@@H](OP(=O)(O)O)[C@H](N)C(=O)O

Tests used:
Test in all cases: fluorescence polarisation; 100 nM FITC-labeled phosphopeptide with increasing hsNbs1(384); room temperature, 15 min incubation; 25 mM HEPES pH 7.4, 150 mM NaCl, 1 mM EDTA, 2 mM DTT, 0.05% Tween20, 0.1% BSA; one-site model
Conditions in all cases: both partners purified
[1] = target: T1, hsNbs1(384) R43A (human, UniProt O60934 1-384, R43A)
T1 construct: source: E. coli BL21(DE3) pLacI, purified as the wild type
T1 sequence (looked up): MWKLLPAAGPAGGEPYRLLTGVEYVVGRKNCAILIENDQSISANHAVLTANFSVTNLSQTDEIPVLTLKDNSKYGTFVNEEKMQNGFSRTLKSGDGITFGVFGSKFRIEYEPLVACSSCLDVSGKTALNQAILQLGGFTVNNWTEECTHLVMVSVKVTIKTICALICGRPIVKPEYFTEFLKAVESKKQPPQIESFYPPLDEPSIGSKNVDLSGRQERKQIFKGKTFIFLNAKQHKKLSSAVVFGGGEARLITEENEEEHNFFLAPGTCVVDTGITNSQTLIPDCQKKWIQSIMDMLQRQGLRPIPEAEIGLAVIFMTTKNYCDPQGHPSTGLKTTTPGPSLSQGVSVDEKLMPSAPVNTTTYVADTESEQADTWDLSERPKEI

[2] = target: T2, hsNbs1(384) K29A (human, UniProt O60934 1-384, K29A)
T2 construct: source: E. coli BL21(DE3) pLacI, purified as the wild type
T2 sequence (looked up): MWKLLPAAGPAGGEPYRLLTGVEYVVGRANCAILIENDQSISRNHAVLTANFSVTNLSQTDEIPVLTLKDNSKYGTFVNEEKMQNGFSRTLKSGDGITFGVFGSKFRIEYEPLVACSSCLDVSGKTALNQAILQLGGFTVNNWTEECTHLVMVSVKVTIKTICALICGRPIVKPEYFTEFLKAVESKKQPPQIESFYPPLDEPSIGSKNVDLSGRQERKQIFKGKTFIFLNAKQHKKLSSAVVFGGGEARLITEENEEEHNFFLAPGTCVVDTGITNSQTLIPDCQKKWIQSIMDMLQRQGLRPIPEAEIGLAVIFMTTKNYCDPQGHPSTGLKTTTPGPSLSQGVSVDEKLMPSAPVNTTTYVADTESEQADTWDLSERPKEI

[3] = target: T3, hsNbs1(384) K125A (human, UniProt O60934 1-384, K125A)
T3 construct: source: E. coli BL21(DE3) pLacI, purified as the wild type
T3 sequence (looked up): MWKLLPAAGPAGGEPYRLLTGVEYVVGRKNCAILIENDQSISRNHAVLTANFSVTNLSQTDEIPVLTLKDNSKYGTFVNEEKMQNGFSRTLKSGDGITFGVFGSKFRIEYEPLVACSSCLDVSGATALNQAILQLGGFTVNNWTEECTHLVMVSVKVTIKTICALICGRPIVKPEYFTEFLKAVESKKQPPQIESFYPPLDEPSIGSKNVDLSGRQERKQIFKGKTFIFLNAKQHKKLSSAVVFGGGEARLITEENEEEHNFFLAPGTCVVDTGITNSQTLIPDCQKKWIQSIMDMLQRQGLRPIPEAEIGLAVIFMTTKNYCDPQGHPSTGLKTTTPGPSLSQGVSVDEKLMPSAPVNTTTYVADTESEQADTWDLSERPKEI

- Kd [1]: 29.2 µM
- Kd [2]: 26 µM
- Kd [3]: 39.6 µM
B1: hsCtIP phosphopeptide R841YIPPNpTPENFWEVGFPEEQ860 with N-terminal FITC-Gly-Gly (peptide)
chain: {FITC′}-GGRYIPPN[pT]PENFWEVGFPEEQ
